T1: CD94 homodimer (human, UniProt Q13241 32-179, limits assumed)
T1 sequence (looked up): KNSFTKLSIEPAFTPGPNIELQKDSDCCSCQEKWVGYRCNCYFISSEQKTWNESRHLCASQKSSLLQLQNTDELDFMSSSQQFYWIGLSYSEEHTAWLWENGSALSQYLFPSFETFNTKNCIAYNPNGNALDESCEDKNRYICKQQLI


What was measured:
CD94 homodimer = target: T1, CD94 homodimer; assay: SPR
Experimental: (§1) Kinetic binding analysis of anti-NKG2A monoclonal antibodies (mAbs) was performed by Surface Plasmon Resonance (SPR) using a Continuous Flow Microspotter (CFM, Wasatch Microfluidics, Salt Lake City, US) combined with an IBIS MX96 SPR instrument (IBIS Technologies, The Netherlands). The extracellular domains (ECDs) of human his-tagged NKG2A, NKG2C and FLAG-tagged CD94 were co-expressed using an Expi293™ expression system and purified by standard Ni-NTA chromatography followed by anti-Flag M2 affinity gel (A2220, Sigma). Binding kinetics were measured by capturing mAbs on a G-a-hu-IgG Fc SensEye® for 15 minutes using the CFM. After spotting, the SensEye® was positioned in the IBIS MX96 biosensor and immobilized mAbs were fixed by SensEye FixIt kit. Kinetic analysis was performed by applying a kinetic titration series injecting increasing concentrations of antigens from 1.6 nM to 400 nM as 2-fold dilutions. After each cycle of antigen injection, the surface was regenerated by 100 mM H₃PO₄, pH 3. Antigen association and dissociation were measured for 15 minutes. The recorded binding responses were fitted to a simple 1:1 binding model with Scrubber 2.0 software for calculation of the on-rate (kₒₙ or kₐ), off-rate (Koff or kd) and affinity (KD) constants. Binding kinetic parameters were measured as an average of three independent measuring points.
The binding affinities and kinetic parameters of the anti-NKG2A mAbs binding to NKG2A/CD94 and NKG2C/CD94 heterodimers are shown in Table 7. […] None of the mAbs bound to CD94 homodimer (data not shown).

[1] = target: NKG2A on primary human NK cells (human, UniProt P26715 1-233); assay: cell-based or functional assay
I225M [2] = target: T2, I225M (Homo sapiens); assay: flow cytometry, CHO-S cells transiently transfected with NKG2A variant and CD94, AF647 goat anti-human IgG secondary (MFI) [cont.), panel 24208]
T2 construct: co-expressed on CHO-S cells; also called human NKG2A I225M / human CD94 heterodimer on CHO-S cells
Experimental: (§2) Six anti-human NKG2A antibodies were tested for binding to the different heterodimers expressed. Antibodies were tested for binding to the transfected cells in 3-fold serial dilutions from 1 μg/mL antibody, and 0 μg/ml antibody, and incubated for 30 min at 4° C. Following a washing step, the cells were incubated with a fluorescent goat anti-human IgG (H+L) secondary antibody (A-21445, Invitrogen) for 30 min at 4° C. in the dark. After a second wash, the cells were tested by high throughput flow cytometry (IQue screener, Sartorius). Data were transferred to Excel and graphs were generated using GraphPad Prism® software. A reference antibody analogue and an isotype control were included for comparison.

[3] = target: T3, cynomolgus NKG2A and cynomolgus CD94 expressed on transiently transfected CHO-S cells (cynomolgus, UniProt Q68VD2 1-233; Q68VD4 1-179); assay: blocking of PE-conjugated HLA-E pentamer binding to transiently transfected CHO-S cells, flow cytometry (percentage binding) [panel B cNKG2A]
T3 construct: whole, on cells
Experimental: (§3) CHO-S cells were transiently transfected with constructs for expression of human NKG2A and human CD94, human NKG2C and human CD94, cynomolgus NKG2A and cynomolgus CD94, or cynomolgus NKG2C and cynomolgus CD94. Mock transfected CHO-S cells were included in the assay as negative control. A PE-conjugated HLA-E pentamer was tested for binding to the heterodimers in the presence of anti-human NKG2A antibodies in 3-fold serial dilutions from 10 μg/mL down to 14 ng/mL antibody, and 0 μg/mL antibody. The antibodies were allowed to bind for 30 min at 4° C. prior to the addition of the HLA-E pentamer in a 1:50 dilution. The fluorescence intensity of HLA-E binding to the transfected cells was measured by high throughput flow cytometry (IQue screener, Sartorius). Data were transferred to Excel and graphs were generated using GraphPad Prism® software.

[4] = target: T4, recombinant human NKG2A/CD94 heterodimer (extracellular domains) (human, UniProt Q13241 32-179); assay: SPR (IBIS MX96), mAb captured on anti-human IgG Fc, ECD heterodimer injected, 1:1 fit
T4 construct: extracellular domain; ECDs co-expressed in Expi293, purified by Ni-NTA and anti-Flag; also called HuNKG2A/huCD94; NKG2A/CD94 ECDs
Experimental: as §1

[5] = target: T5, recombinant human NKG2C/CD94 heterodimer (extracellular domains) (human, UniProt P26717 94-231; Q13241 32-179); assay: as above
T5 construct: extracellular domain; also called HuNKG2C/huCD94; NKG2C/CD94 ECDs
Experimental: as §1

[6] = target: T6, human NKG2A and human CD94 expressed on transiently transfected CHO-S cells (human, UniProt Q13241 1-179); assay: flow cytometry, transiently transfected CHO-S cells, AF647 goat anti-human IgG secondary (MFI) [cont.), panel 23765]
T6 construct: whole, on cells; also called human NKG2A/CD94 heterodimer
Experimental: (§4) CHO-S cells were transiently transfected with human NKG2A and human CD94, human NKG2C and human CD94, cynomolgus NKG2A and cynomolgus CD94 or cynomolgus NKG2C and cynomolgus CD94 constructs. Mock transfected CHO-S cells were included in the assay as a negative control. Antibodies were tested for binding to the transfected cells in 3-fold dilutions from 30 μg/mL down to 0.5 ng/ml antibody, and 0 μg/mL antibody, and incubated for 30 min at 4° C. Following a washing step, the cells were incubated with a fluorescent goat anti-human IgG (H+L) secondary antibody (A-21445, Invitrogen) for 30 min at 4° C. in the dark. After a second wash, the cells were tested by high throughput flow cytometry (IQue screener, Sartorius). Data were transferred to Excel and graphs were generated using GraphPad Prism® software.

[7] = target: T3, cynomolgus NKG2A and cynomolgus CD94 …; assay: as above
Experimental: as §4

I168S = target: T7, I168S (Homo sapiens); assay: flow cytometry, CHO-S cells transiently transfected with NKG2A variant and CD94, AF647 goat anti-human IgG secondary (MFI) [cont.), panel 23765]
T7 construct: co-expressed on CHO-S cells; also called human NKG2A I168S / human CD94 heterodimer on CHO-S cells
Experimental: as §2

I225M [8] = target: T2, I225M; assay: as above
Experimental: as §2

[9] = target: T6, human NKG2A and human CD94 expressed on …; assay: as above
Experimental: as §2

[10] = target: T6, human NKG2A and human CD94 expressed on …; assay: blocking of PE-conjugated HLA-E pentamer binding to transiently transfected CHO-S cells, flow cytometry (percentage binding) [panel A hNKG2A]
Experimental: as §3

[11] = target: T6, human NKG2A and human CD94 expressed on …; assay: flow cytometry, transiently transfected CHO-S cells, AF647 goat anti-human IgG secondary (MFI) [cont.), panel 24135]
Experimental: as §4

I225M [12] = target: T2, I225M; assay: flow cytometry, CHO-S cells transiently transfected with NKG2A variant and CD94, AF647 goat anti-human IgG secondary (MFI) [cont.), panel 24135]
Experimental: as §2

[13] = target: T6, human NKG2A and human CD94 expressed on …; assay: as above
Experimental: as §2

NKG2A on primary human NK cells, sequence (P26715 whole entry): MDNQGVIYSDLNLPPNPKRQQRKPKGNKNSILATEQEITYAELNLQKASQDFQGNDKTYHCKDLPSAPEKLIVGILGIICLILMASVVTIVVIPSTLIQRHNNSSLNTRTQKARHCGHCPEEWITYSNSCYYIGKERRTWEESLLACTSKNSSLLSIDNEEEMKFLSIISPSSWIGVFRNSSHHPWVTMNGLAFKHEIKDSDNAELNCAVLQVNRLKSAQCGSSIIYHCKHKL
T2 sequence (P26715 whole entry I225M): as the sequence (P26715 whole entry) above, with I225M counted along it
T7 sequence (P26715 whole entry I168S): as the sequence (P26715 whole entry) above, with I168S counted along it

| Binder | binding result (CD94 homodimer) | binding result [3] | Kd [4] [nM] | koff [4] [s⁻¹] | kon [4] [M⁻¹ s⁻¹] | Kd [5] [nM] | koff [5] [s⁻¹] | kon [5] [M⁻¹ s⁻¹] | also measured |
| --- | --- | --- | --- | --- | --- | --- | --- | --- | --- |
| BMS-NKG2A.9 (antibody, human IgG1, kappa, V domains shown) VH: EVQLVESGGGLVKPGGSLRLSCAASGFTFSSHSMNWVRQAPGKGLEWVSAISSSSSYIYYADSVKGRFTISRDNAKNSLYLQMNSLRAEDTAVYYCAREEWGLPFDYWGQGTLVTVSS VL: AIQLTQSPSSLSASVGDRVTITCRASQGISSALAWYQQKPGKAPKLLIYDASSLKSGVPSRFSGSGSGTDFTLTISSLQPEDFATYYCQQFNSYPLTFGQGTRLEIKR |  |  |  |  |  |  |  |  | EC50 (ug/mL) of induced NK cell cytotoxicity, median (n = 7) [1]: 1.07 µg/mL |
| BMS-NKG2A.11 (antibody, human IgG1, kappa, V domains shown) VH: EVQLVESGGGLVKPGGSLRLSCAASGFTFSSHSMNWVRQAPGKGLEWVSAISSSSSYIYYADSVKGRFTISRDNAKNSLYLQMNSLRAEDTAVYYCAREEWGLPFDYWGQGTLVTVSS VL: AIQLTQSPSSLSASVGDRVTITCRASQGIPSALAWYQQKPGKAPKLLIYDASSLKSGVPSRFSGSGSGTDFTLTISSLQPEDFATYYCQQFNSYPLTFGQGTRLEIKR |  |  |  |  |  |  |  |  | EC50 (ug/mL) of induced NK cell cytotoxicity, median (n = 6) [1]: 0.71 µg/mL |

More lines, main results first:

| binding result (CD94 homodimer) | binding result [3] | Kd [4] [nM] | koff [4] [s⁻¹] | kon [4] [M⁻¹ s⁻¹] | Kd [5] [nM] | koff [5] [s⁻¹] | kon [5] [M⁻¹ s⁻¹] | Binder | also measured |
| --- | --- | --- | --- | --- | --- | --- | --- | --- | --- |
| no binding | no binding (tested: 10000 ng/ml) |  |  |  |  |  |  | antibody 24208 (antibody, human IgG1, kappa, L234A L235A, V domains shown, Fully human IgG1-LALA (L234A/L235A), kappa; also called mAb 24208; 24208 (IgG1 LALA)) VH: QVQLVESGGGLVKPGGSLRLSCAASGFTFSDYYMRWIRQAPGKGLEWVSHISTSGSTIYYADSVKGRFTISRDNAKNSLYLQMNSLRAEDTAVYYCARDHYYSRGVIGYWGQGTLVTVSS VL: DIQMTQSPSSVSASVGDRVTITCRASQGISSWLAWYQQKPGKAPKLLIYAASSLQSGVPSRFSGSGSGTDFTLTISSLQPEDFATYYCQQANSFPYTFGQGTKLEIKR | EC50 (ug/mL) of induced NK cell cytotoxicity, median (n = 19) [1]: 0.19 µg/mL; EC50 (read off the curve) (I225M [2]): ~0.004 µg/mL |
|  |  | 15 | 0.0013 | 88000 | 717 | 0.00156 | 2180 | antibody 23765 (antibody, human IgG1, kappa, L234A L235A, V domains shown, Fully human IgG1-LALA (L234A/L235A), kappa) VH: EVQLVESGGGLVKPGGSLRLSCAASGFTFSCCRMNWVRQAPGKGLEWVSSISSSSSYIYYADSVKGRFTISRDNAKNSLYLQMNSLRAEDTAVYYCARDGWNDVFDYWGQGTLVTVSS VL: EIVLTQSPATLSLSPGERATLSCRASQSVSSYLAWYQQKPGQAPRLLIYDASNRATGIPARFSGSGSGTDFTLTISSLEPEDFAVYYCQQRSNWPLTFGGGTKVEIKR | EC50 (read off the curve) [6]: ~0.04 µg/mL; EC50 (read off the curve) [7]: ~0.02 µg/mL; EC50 (read off the curve) (I168S): ~0.01 µg/mL; EC50 (read off the curve) (I225M [8]): ~0.01 µg/mL; EC50 (read off the curve) [9]: ~0.01 µg/mL; IC50 (read off the curve) [10]: ~0.6 µg/mL |
| no binding | no binding (tested: 10000 ng/ml) | 3.7 | 0.0013 | 340000 | 147 | 0.00098 | 6700 | antibody 24135 (antibody, human IgG1, kappa, L234A L235A, V domains shown, Fully human IgG1-LALA (L234A/L235A), kappa; also called mAb 24135) VH: QVQLQESGPGLVKPSETLSLTCTVSGGSVSSGHYYWSWIRQPPGKGLEWIGYIYYSGSTTYNPSLKSRVSISVDTSKHQFSLKLSSVTAADTAVYYCARWAGSYQPYYYYYGMDVWGQGTTVTVSS VL: not shown | EC50 (read off the curve) [11]: ~0.02 µg/mL; EC50 (read off the curve) (I225M [12]): ~0.006 µg/mL; EC50 (read off the curve) [13]: ~0.005 µg/mL |

— patent US20240294638A1 (LES LABORATOIRES SERVIER, published 2024)
